# Measurements as given in PMC10505172, “Discovery and pharmacophoric characterization of chemokine network inhibitors using phage-display, saturation mutagenesis and computational modelling” (Nature Communications, 2023).
# Ends that are not written are not given here.
# T1: CCL8 (human, UniProt P80075 24-99)
# T1 sequence (looked up): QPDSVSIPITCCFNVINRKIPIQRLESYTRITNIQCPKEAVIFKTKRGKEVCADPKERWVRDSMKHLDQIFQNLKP
# B1: HD2 synthetic peptide (peptide)
# peptide: EEDDYTAYAPLTCYFT-NH2
# Columns and labels:
# CCL8 = target: T1, CCL8; assay: cell-based or functional assay
# CXCL6 = CXCL6 (human, UniProt P80162 38-114); assay: cell-based or functional assay
binder,measurement,setting,value
B1,"IC50 (median of biological replicates) of inhibition of CCL8-induced cell migration, chemokine at EC80",CCL8,1.9e-08 molar
same,"IC50 (median of biological replicates) of inhibition of CXCL6-induced cell migration, chemokine at EC80",CXCL6,1.4e-05 molar
